Results from patent US10920265B2, “Compounds and methods for detection of enzymes that remove methyl succinyl groups from epsilon-amino lysine moieties” (Enzo Life Sciences, Inc., priority 2011, dated 2021).

Substrate: CC(=O)N[C@@H](CCCCNC(=O)CCC(=O)O)C(=O)Nc1ccc2c(C)cc(=O)oc2c1
Experiment: SIRT5 desuccinylation/deacetylation of fluorogenic lysyl substrates, trypsin developer
Assay type: biochemical, human
Settings: other: varied substrate: Lysyl, 1 mM NAD^+, 10 ng SIRT5, 20 min. at 37° C., pH 8.0
Description: FIG. 3 is graphs showing that SIRT5 catalyzes NAD^+-dependent desuccinylation of Ac-Lys(ε-succinyl)-AMC far more efficiently than NAD^+-dependent deacetylation of Ac-Arg-His-Lys-Lys(ε-acetyl)-AMC. Fifty μl reactions in Assay Buffer (50 mM Tris/HCl, pH 8.0, 137 mM NaCl, 2.7 mM KCl, 1 mM MgCl2, 1 mg/ml BSA) included 50 μM of either Ac-Lys(ε-succinyl)-AMC or Ac-Arg-His-Lys-Lys(ε-acetyl)-AMC, and, where indicated, 500 μM NAD^+ and 5 μg recombinant human SIRT5 (Enzo Life Sciences Cat. # BML-SE555). […] AMC fluorescence was read in a Cytofluor II plate-reading fluorimeter (Perseptive Biosystems) at wavelengths 360 nm (excitation)/460 nm (emission), Gain 54. Data represent the mean of two (No Enzyme) or three (+SIRT5) determinations and error bars the standard deviations. Panels A and B present the same data, but with the +SIRT5/+NAD^+/Ac-Lys(ε-succinyl)-AMC bar omitted from B to show the detail on the remaining bars. Statistically significant differences (Student's t-test) are indicated by asterisks as follows: *: p<0.02 vs. corresponding No Enzyme control; **: p<0.001 vs. corresponding −NAD^+ control; ***: p<3×10^−6 vs. both No Enzyme and −NAD^+ controls.
FIG. 4 is a graph showing that Ac-Lys(Succ.)-AMC enables SIRT5 assay at low enzyme concentrations. Fifty μl reactions in Assay Buffer (50 mM Tris/HCl, pH 8.0, 137 mM NaCl, 2.7 mM KCl, 1 mM MgCl2, 1 mg/ml BSA) included 2 or 10 μM Ac-Lys(ε-succinyl)-AMC, 500 μM NAD^+ and, where indicated, 5 ng recombinant human SIRT5 (Enzo Life Sciences Cat. # BML-SE555). […] AMC fluorescence was read in a Synergy 2 plate-reading fluorimeter (BioTek) at wavelengths 360 nm (excitation)/460 nm (emission), Gain 40. Data represent the mean of two (No Enzyme) or three (5 ng SIRT5) determinations and error bars the standard deviations. Statistically significant differences (Student's t-test) are indicated by asterisks as follows: *: p=0.002; **: p=0.009, each with respect to the corresponding “No SIRT5” samples.
FIG. 5 is graphs showing dependence of SIRT5 initial rate kinetics on the concentrations of Ac-Lys(Succ.)-AMC and Ac-Lys(Ac.)-AMC. Fifty μl desuccinylation or deacetylation reactions were performed as described earlier (FIG. 4), with the indicated concentrations of Ac-Lys(Succ.)-AMC or Ac-Lys(Ac.)-AMC and 1 mM NAD^+, for 20 min. at 37° C. Reactions with Ac-Lys(Succ.)-AMC contained 10 ng SIRT5 and those with Ac-Lys(Ac.)-AMC contained 5 SIRT5. […] AMC fluorescence was read in a Synergy 2 plate-reading fluorimeter (BioTek) at wavelengths 360 nm (excitation)/460 nm (emission), Gain 40. […] Fluorescence differences were converted to specific activities (pmol/min/μg) by measuring the fluorescence increase due to the addition a standard solution of AMC (5 μl of a […]). […]

B1: recombinant human SIRT5 (Homo sapiens) (protein)
chain: SSSMADFRKFFAKAKHIVIISGAGVSAESGVPTFRGAGGYWRKWQAQDLATPLAFAHNPSRVWEFYHYRREVMGSKEPNAGHRAIAECETRLGKQGRRVVVITQNIDELHRKAGTKNLLEIHGSLFKTRCTSCGVVAENYKSPICPALSGKGAPEPGTQDASIPVEKLPRCEEAGCGGLLRPHVVWFGENLDPAILEEVDRELAHCDLCLVVGTSSVVYPAAMFAPQVAARGVPVAEFNTETTPATNRFRFHFQGPCGTTLPEALACHENETVS
notes: purchased Enzo Life Sciences BML-SE555
Q: With B1 as the protein, how does the Km read?
A: 108 µM

Q: What about the Vmax of the same protein?
A: 490 pmol/min/µg

Q: And the kcat?
A: 0.26 s⁻¹

Q: And the kcat/Km?
A: 2450 M⁻¹ s⁻¹
